T1: PRO87299(ECD)-Fc (human, UniProt Q7Z6A9 31-155, I-125 radiolabel in the cell binding assays (Table 7); residues not stated)
T1 construct: Extracellular domain (amino acids 1-155) ligated into a plasmid containing a human Fc domain; also called PRO87299-Fc; PRO87299(ECD)-Fc chimera; not shown: human Fc domain
T1 sequence: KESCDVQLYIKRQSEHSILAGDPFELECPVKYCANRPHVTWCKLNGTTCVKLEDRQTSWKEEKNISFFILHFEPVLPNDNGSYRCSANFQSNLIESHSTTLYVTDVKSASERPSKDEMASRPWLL

T2: hICOS-Fc (human, UniProt Q9Y6W8 21-141, limits assumed)
T2 construct: Bought (R&D systems); not shown: Fc; not described
T2 sequence (looked up): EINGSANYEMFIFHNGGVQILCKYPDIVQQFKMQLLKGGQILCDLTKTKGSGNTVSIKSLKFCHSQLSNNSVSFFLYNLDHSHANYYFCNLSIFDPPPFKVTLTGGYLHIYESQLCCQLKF

T3: hCTLA4-Fc (human, UniProt P16410 37-162, limits assumed)
T3 construct: Bought (R&D systems); not shown: Fc; not described
T3 sequence (looked up): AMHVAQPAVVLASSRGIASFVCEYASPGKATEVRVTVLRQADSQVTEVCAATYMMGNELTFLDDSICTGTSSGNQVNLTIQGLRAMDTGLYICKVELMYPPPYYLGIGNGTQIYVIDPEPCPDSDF

T4: HVEM expressed on transfected 293 cells (Homo sapiens (Human), UniProt Q92956 39-283)
T4 construct: also called HVEM transfected cells; 293 cells expressing HVEM
T4 sequence: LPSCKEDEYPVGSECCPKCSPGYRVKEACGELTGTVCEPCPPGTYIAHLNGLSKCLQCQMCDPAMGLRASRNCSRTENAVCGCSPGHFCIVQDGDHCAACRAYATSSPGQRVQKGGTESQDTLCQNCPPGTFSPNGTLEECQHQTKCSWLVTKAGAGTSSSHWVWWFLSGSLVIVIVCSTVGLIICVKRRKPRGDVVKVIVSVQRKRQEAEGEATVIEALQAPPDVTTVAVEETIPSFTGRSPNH

B1: HVEM-Fc (Fc fusion)
chain: LPSCKEDEYPVGSECCPKCSPGYRVKEACGELTGTVCEPCPPGTYIAHLNGLSKCLQCQMCDPAMGLRASRNCSRTENAVCGCSPGHFCIVQDGDHCAACRAYATSSPGQRVQKGGTESQDTLCQNCPPGTFSPNGTLEECQHQTKCSWLVTKAGAGTSSS
modifications: I-125 radiolabel in the cell binding assays (Table 7); residues not stated
notes: also called I-125-HVEM-Fc; HVEM-Fc fusion protein; not shown: Fc
B2: LIGHT-FLAG (ligand)
chain: GEMVTRLPDGPAGSWEQLIQERRSHEVNPAAHLTGANSSLTGSGGPLLWETQLGLAFLRGLSYHDGALVVTKAGYYYIYSKVQLGGVGCPLGLASTITHGLYKRTPRYPEELELLVSQQSPCGRATSSSRVWWDSSFLGGVVHLEAGEEVVVRVLDERLVRLRDGTRSYFGAFMV
modifications: I-125 radiolabel; residues not stated
notes: also called I-125-LIGHT-FLAG; not shown: FLAG tag

Key:
[1] = target: T5, LIGHT expressed on transfected cells (Homo sapiens (Human), UniProt O43557 1-240); test: radioligand binding to transfected cells, Scatchard analysis
T5 construct: also called Expressed protein LIGHT

[2] = target: T6, PRO87299 on cells (human, UniProt Q7Z6A9 31-289); test: as above
T6 construct: Used both for transfected cells and for the native protein on human primary B and CD4+ T cells; also called PRO87299 transfected cells; 293 cells expressing PRO87299

[3] = target: T7, hCD28-Fc (human, UniProt P10747 19-152, limits assumed); test: Biacore; hCD28-Fc amine coupled to a CM5 chip, HVEM-Fc injected at 2 ug/ml and 5 ul/min
T7 construct: Bought (R&D systems); not shown: Fc; not described
T7 sequence (P10747 19-152 limits assumed): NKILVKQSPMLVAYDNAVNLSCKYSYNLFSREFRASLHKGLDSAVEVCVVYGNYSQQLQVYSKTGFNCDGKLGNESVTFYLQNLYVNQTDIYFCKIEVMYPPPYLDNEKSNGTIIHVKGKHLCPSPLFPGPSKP

[4] = target: T1, PRO87299(ECD)-Fc; test: Biacore; HVEM-Fc amine coupled to a CM5 chip at 150 RU, PRO87299-Fc 17 nM injected at 5 ul/min for 1200 s, alone and mixed with 25 nM LIGHT
[5] = target: T8, PRO87299/LIGHT (both expressed on the same cells) (human, UniProt Q7Z6A9 31-289; O43557 1-240); test: radioligand binding to cells expressing PRO87299/LIGHT, Scatchard analysis
T8 construct: also called Expressed protein PRO87299/LIGHT

[6] = target: T2, hICOS-Fc; test: Biacore; hICOS-Fc amine coupled to a CM5 chip, HVEM-Fc injected at 2 ug/ml and 5 ul/min
[7] = target: T9, hPD-1-Fc (human, UniProt Q15116 25-167, limits assumed); test: Biacore; hPD-1-Fc amine coupled to a CM5 chip, HVEM-Fc injected at 2 ug/ml and 5 ul/min
T9 construct: Bought (R&D systems); not shown: Fc; not described
T9 sequence (Q15116 25-167 limits assumed): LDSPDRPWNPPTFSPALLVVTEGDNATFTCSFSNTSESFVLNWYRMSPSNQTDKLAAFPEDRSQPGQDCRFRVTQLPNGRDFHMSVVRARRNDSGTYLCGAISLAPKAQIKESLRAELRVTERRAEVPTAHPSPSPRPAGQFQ

[8] = target: T3, hCTLA4-Fc; test: Biacore; hCTLA4-Fc amine coupled to a CM5 chip, HVEM-Fc injected at 2 ug/ml and 5 ul/min
[9] = target: T4, HVEM expressed on transfected 293 cells; test: radioligand binding to transfected cells, Scatchard analysis

Binder	Kd [1] [nM]	Kd [2] [nM]	binding result [3]	binding result [4]	Kd [5] [nM]	binding result [6]	binding result [7]	binding result [8]	Kd [9] [nM]
B1	7	5.5	no binding (tested: 2 ug/ml)	binds	0.5	no binding (tested: 2 ug/ml)	no binding (tested: 2 ug/ml)	no binding (tested: 2 ug/ml)	
B2									2.5

Source: patent US20090175855A1 (Genentech, published 2009)
